Reference: patent US8187838B2, “β-Galactoside-α2, 6-sialyltransferase, a gene encoding thereof, and a method for producing thereof” (Japan Tobacco Inc., priority 2006, dated 2012)

What was measured:
Assay type in all cases: biochemical
[1] = Confirmation of binding mode of sialic acid with pyridylaminated lactose, HPLC of product; details: crude enzyme solution, CMP-NeuAc, 25° C., 18 hours
Procedure: To determine the binding mode of sialic acid, a reaction using PA-lactose as a substrate was then performed. The enzymatic reaction was accomplished by using the resulting crude enzyme solution and a pyridylaminated sugar chain as a glycosyl acceptor substrate. The pyridylaminated sugar chain used for analysis was pyridylaminated lactose (Galβ1-4Glc-PA, Takara Bio Inc., Japan). To 5 μl of the crude enzyme solution, 1.5 μl of 5 mM CMP-NeuAc and 1.5 μl of 10 pmol/μl glycosyl acceptor substrate were added and reacted at 25° C. for 18 hours. After the reaction, the reaction solution was treated at 100° C. for 2 minutes to inactivate the enzyme, followed by HPLC to analyze the reaction product. The HPLC system used was Shimadzu LC10A (Shimadzu Corporation, Japan) and the analytical column used was Takara PALPAK Type R (Takara Bio Inc., Japan). […] The analysis was performed under the following conditions: flow rate: 1 ml/min, column temperature: 40° C., detection: fluorescence (Ex: 320 nm, Em: 400 nm).
The crude enzyme solution prepared in (4) above from the ISH224-N1C0 or ISH224-N0C0 clone was used to examine whether sialyltransferase expressed by E. coli cells into which ISH224-N0C0/pTrc or ISH224-N1C0/pTrc had been introduced had β-galactoside-α2,6-sialyltransferase activity. […] As a result, PA-6′-sialyllactose (Neu5Acα2-6Galβ1-4Glc-PA) was detected, as in the case of Example 1.

[2] = Optimum pH, temperature and salt concentration for enzyme activity
Procedure: The purified enzyme prepared in Example 4-1 was used to examine the optimum pH, optimum temperature and optimum salt concentration for JT-ISH-224-derived recombinant β-galactoside-α2,6-sialyltransferase N1C0.
Acetate buffer (pH 4.0, pH 4.5 and pH 5.0), cacodylate buffer (pH 5.0, pH 5.5, pH 6.0, pH 6.5 and pH 7.0), phosphate buffer (pH 7.0, pH 7.5 and pH 8.0) and TAPS buffer (pH 8.0, pH 8.5 and pH 9.0) were prepared and used for enzyme activity measurement at 25° C. at various pH values.
The enzyme activity was measured at an interval of 5° C. starting from 10° C. up to 50° C. using cacodylate buffer (pH 5.0).
The enzyme activity was measured at 30° C. using cacodylate buffer (pH 5.0) by adjusting the NaCl concentration in the reaction solution to 0 M, 0.1 M, 0.25 M, 0.5 M, 0.75 M, 1.0 M, 1.5 M or 2.0 M.

asialofetuin = experiment: Sialic acid transfer to glycoprotein acceptor; details: 25° C., 2 hours
Procedure: As a glycosyl acceptor substrate, asialofetuin was used. Asialofetuin (2 mg) was dissolved in 1 ml of 20 mM Bis-Tris buffer (pH 6.0) and used as a glycosyl acceptor substrate solution. As a glycosyl donor substrate, CMP-NeuAc was used. The glycosyl acceptor substrate solution (40 μl), the glycosyl donor substrate (5 μl) and either of the enzyme solutions (5 μl, 10 mU each) were mixed and incubated at 25° C. for 2 hours to cause sialic acid transfer reaction. After completion of the reaction, the reaction solution was gel-filtered by being applied to a SEPHADEX® G-50 Superfine (0.8×18.0 cm) equilibrated with 0.1 M sodium chloride. A glycoprotein-containing eluate fraction (2-4 ml fraction) from gel filtration was collected and measured for its radioactivity using a liquid scintillation counter to quantify sialic acid transferred to the glycosyl acceptor substrate.

B1: ISH224-N1C0 (protein, listed as Photobacterium sp.)
chain: MSEENTQSIIKNDINKTIIDEEYVNLEPINQSNISFTKHSWVQTCGTQQLLTEQNKESISLSVVAPRLDDDEKYCFDFNGVSNKGEKYITKVTLNVVAPSLEVYVDHASLPTLQQLMDIIKSEEENPTAQRYIAWGRIVPTDEQMKELNITSFALINNHTPADLVQEIVKQAQTKHRLNVKLSSNTAHSFDNLVPILKELNSFNNVTVTNIDLYDDGSAEYVNLYNWRDTLNKTDNLKIGKDYLEDVINGINEDTSNTGTSSVYNWQKLYPANYHFLRKDYLTLEPSLHELRDYIGDSLKQMQWDGFKKFNSKQQELFLSIVNFDKQKLQNEYNSSNLPNFVFTGTTVWAGNHEREYYAKQQINVINNAINESSPHYLGNSYDLFFKGHPGGGIINTLIMQNYPSMVDIPSKISFEVLMMTDMLPDAVAGIASSLYFTIPAEKIKFIVFTSTETITDRETALRSPLVQVMIKLGIVKEENVLFWADLPNCETGVCIAV
With B1 the “β-galactoside-α2,6-sialyltransferase activity (PA-6′-sialyllactose detected)” value [1] was “found to have β-galactoside-α2,6-sialyltransferase activity”, the “pH of maximum enzyme activity (optimum pH)” value ([2]; 25° C., acetate, cacodylate, phosphate, TAPS buffers pH 4.0-9.0) was 5.0 and the “temperature of maximum enzyme activity (optimum temperature)” value ([2]; cacodylate buffer (pH 5.0), 10° C. to 50° C.) was 30 °C. For the same molecule, the “Radioactivity (cpm)” value (asialofetuin; 10 mU enzyme, glycoprotein fraction after gel filtration) was 3051 cpm and the “sialic acid transfer to asialofetuin (in words)” value (asialofetuin) was “higher efficiency of sialic acid transfer”.
